{
  "source": "the domain aggregation screens of Martell et al. (2025)",
  "data": [
    {"test": "soluble fraction after stress (log2 fold change); higher = more stays soluble; pooled small domains, quantitative proteomics", "settings": "stress: 50 degC", "outline": "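Each library was heated to 50°C as a stress step. The libraries, made up of small protein domains, were pooled and analysed at high throughput by quantitative proteomics. The reported value is the base-two logarithm of the fold change in each protein's soluble amount after stress, taken as a measure of aggregation propensity. The higher the value, the more protein stays in solution.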", "values": [
      {"sequence": "HMRKKDGEAYVLPRPLKKGDSVLIYDIDKKGTVLQPPEKGGKTALIQAGIIQTRVPVSNLRLLE", "soluble fraction (log2)": 0.383},
      {"sequence": "HMKPGTIVTGVVVDIKSDVVVVNAGLKSEGIVPIEQFRNDRGELEVAIGDEVKVALDSLENGFGETVLSRE", "soluble fraction (log2)": 0.0252},
      {"sequence": "HMTVKKEIAKVKPTPLGWLRVRETPSLNGAEITKVNTGESYDVLDKETGWIKIKVSETVEGWVSDAYIELS", "soluble fraction (log2)": 0.236},
      {"sequence": "HMGNNSIDIKDVIYNLVEISQLQAFDIVKHFKTWENLVNKPDELDTVIDGDSDIVDRIKYKIKSLS", "soluble fraction (log2)": 0.109},
      {"sequence": "HMRSVTLQTDREGDILYVDGKQIGVSPQRLELSYGVHTIRAERGEQHTEKELEVTETGGETVVTLGFG", "soluble fraction (log2)": 0.129},
      {"sequence": "HMEAEVIKTASDMADRNGLHNVSLKAIAENLGIRTPSLYNHIGSLDELLREIAHSGMRTMNE", "soluble fraction (log2)": 0.02},
      {"sequence": "HMEFQSIGGKIRIGREREHLTQAELAQKLSVTRQAVSNWERDKTLPDIYMIREIAEIFGLTLDEFMEGAKK", "soluble fraction (log2)": -0.672},
      {"sequence": "HMAQVRSTVERRENGTYTVELNLNDDVDNVMRLQLMVATKEMAEDLAQRFQKNPEQVYSQLVTALYG", "soluble fraction (log2)": 0.0631},
      {"sequence": "HMRPTYRTRLEVLINNPAISGRDLDFAQSLLSYYERKGRLSAGRVKWVTTLEERYSPENLAASAAK", "soluble fraction (log2)": -0.828},
      {"sequence": "HMENYIEQLTAKNSEYIHVVTRELVKIGKSDEEIKAILSDILPQIVAAQDQRVLAKDILGTPSEFTAKYAP", "soluble fraction (log2)": 0.173},
      {"sequence": "HMEAEGLDFAPMPGEIGKKLWQEVSKEAWAGWLKHQTMLVNENRLSFVDPAARKYLTEQTEAYFFG", "soluble fraction (log2)": 0.131},
      {"sequence": "HMGQARQSAIRELGNDPTSGKKITVRSGRYGPYVTDGEVNASLRKGDDPQTIDLDRAIELLAARREKLG", "soluble fraction (log2)": 0.13},
      {"sequence": "HMNFRESVLAVFENSKQKYLDFDEIAKRLGLTRGFDRQALASMLNELTRNDEIVFTKRNKYTLPEN", "soluble fraction (log2)": 0.125},
      {"sequence": "HMSQYVPDPVLNAALVGYLDFRKQAGKPMTDYSIRLLLVDLAKLSGNPQEQAAILDQSTKNNWIGVYALG", "soluble fraction (log2)": -2.87},
      {"sequence": "HMGEQVAVPDVTKKSVREVNNILTSAGLRLQIEGSGISVRQDPPADTMVAPDTVVTVSFEPP", "soluble fraction (log2)": 0.168},
      {"sequence": "HMEVENAQLLARLTPQEHRVFERVVAGLSNREIGSEMDISIKTVEVHRARVMRKLEANSVAELVRFHIHN", "soluble fraction (log2)": -2.25},
      {"sequence": "HMNIYFNIEDAVANAVVENGKMSAAIYEKNVDTGEVAKLAEVSMPVMGGNINITKTLLTKALISQLP", "soluble fraction (log2)": -0.384},
      {"sequence": "HMPDPLYLINGKIVNKSDFNNIDPRSIQSIEVLKANKALEAFGNDGKNGVIKITLKSSNDQM", "soluble fraction (log2)": 0.0749},
      {"sequence": "HMSVERIEPPLPLIDTLLALRDALERPLSREENAFLSRRFAGGATRAQIDALAAQFRGAAAAESKV", "soluble fraction (log2)": 0.104},
      {"sequence": "HMRNNKLRRANKLKTEFENLPHIGKKRAHVLLKAFGSTENLKMTTAQALSEAAKISLKQAEEVLEAVRG", "soluble fraction (log2)": -0.0475},
      {"sequence": "HMGGRTITVGISENMTVKDIAQMLEEKGLIEDARLFVVQELLSAYHKEIKPGIYDLSTDMTAAQMLEIMS", "soluble fraction (log2)": -0.464},
      {"sequence": "HMAPLATLEADGNGAVKLPNLAGHAIREVAAALGGANLALIPIGSGTSWKQNPAPGTILHKGDTVTVYF", "soluble fraction (log2)": -0.0832},
      {"sequence": "HMGSKKITIYVSGEVKNPGIVTLNSDQRLASAVEKLGGVTENADMNNINLAMKLEDEMHYIIPKKGEK", "soluble fraction (log2)": 0.28},
      {"sequence": "HMDPHEEELLRQLIRGDIAGYEVLFHKYYPTFFAFIKGMTKETVVAEDITQNIFMKVWLNRERLDAA", "soluble fraction (log2)": -0.0635},
      {"sequence": "HMHLRYTYIYDNENRVTSKEASKWDSTQEAWVPYFKMNVSYVNNEVELSYARWNSKSNAYDSSIKKTI", "soluble fraction (log2)": -2.36},
      {"sequence": "HMAGNNTATKEIAELLIAKGADVNAMNLSPPGREIGGMTPLDMAILGNRNEIADLLRKHGGRTQKELKAE", "soluble fraction (log2)": 0.356},
      {"sequence": "HMYPDNSGDIQQLAQNIFRQENVSVDRDGLALISSRLGSDHAATRSEIEKLALLAGPGGTLTFETISEVLG", "soluble fraction (log2)": -0.144},
      {"sequence": "HMKLSKLTKPELDEIFRNANFTEEEEKVFWLLARGKSLEQISAKTFLPIATVNRRVKSIKDKIG", "soluble fraction (log2)": 0.0605},
      {"sequence": "HMKGSIMIETILKELKKNNKGFNFLLEKFDISEDELMKIINDLIHDKKVFLNSNNKYEIVSD", "soluble fraction (log2)": -0.238},
      {"sequence": "HMEQVPEAVGRRVRQARSDRGWTLDQLAERSEVSRRMIVNVEAGTSNASIATLLRLATALNVGLAELVA", "soluble fraction (log2)": -1.41},
      {"sequence": "HMSGTYIVTVQANTLDIYKSMTSNDTIGKANKGDVFQILEDMGGGYAKVSYNDVEGYISIKDGDTSIDEM", "soluble fraction (log2)": -0.23},
      {"sequence": "HMSVFGMEIGKTTEAEAGRMYRLNKEQLNPYSGGYQYSVNPKAIDFSGLEQVTLIFDEKKVLVYVQAV", "soluble fraction (log2)": -0.0837},
      {"sequence": "HMDHKTKLQEVLQKSGDVFIEYRLIKEEGPAHERIFWIEVYVDDQLIGTGQGKSKKLAEQAAAENALAALE", "soluble fraction (log2)": -0.252},
      {"sequence": "HMTKSIDFDFREDGVYIKADKDVTIVDIVTKIDLRRIQSVDLTKIKQMLEIGSLDNWIKIAEPQMEK", "soluble fraction (log2)": 0.0472},
      {"sequence": "HMNNLKTKELSKIGYTNDKARSLVISIIPKHFKYHSKSEIIELLTNIKNKPEDYVSDEILGKIAETFMEKI", "soluble fraction (log2)": -0.215},
      {"sequence": "HMLGKSNAERQLDLILGAIERSITGVSRSKLMQAYHLDSRGATAAFETLEQRGLITRSKSGRTELLIPTRV", "soluble fraction (log2)": -1.29},
      {"sequence": "HMNRLEFLQGLKAELEGRVPHSIIQENLRYYDSYISDEAAKGQSEEDVVESLGGPRIIARTIVDAA", "soluble fraction (log2)": 0.134},
      {"sequence": "HMGQTDTIIKTTTDLYYEMSTMSDDDKLVVAQTLRDVWMAVGRWSGKLSKKQREKVAEVKRVLGE", "soluble fraction (log2)": -0.833}
    ]}
  ]
}
